Experiments:
[1] = Nanoparticle size by dynamic light scattering; assay type: physicochemical
Procedure: The volume and size distribution of the nanoparticles was determined by dynamic light scattering at 633 nm (Zetasizer Nano ZS, Malvern Instruments Limited, Malvern, Worcestershire, UK). Nanoconjugate size was also measured using purified samples, diluted to 0.2 mg/mL and contrasted by evaporation of 1 nm platinum layer in carbon-coated grids, before being visualized in a Hitachi H-7000 transmission electron microscope (TEM), as described33.

CXCR4^+ SW1417 CRC cells = assay: Internalization in CXCR4+ SW1417 CRC cells (flow cytometry, AMD3100 competition); assay type: cell-based, human; set-up: internalization measured by fluorescence emission using flow cytometry: dose or concentration left out as unconfirmed; details: 1 hour exposure
Procedure: CXCR4+ SW1417-luc CRC cells were cultured in modified Eagle's medium (Gibco, Rockville, MD) supplemented with 10% fetal calf serum (Gibco), and incubated at 37° C. and 5% CO2 in a humidified atmosphere. […] Fluorescence emission was measured with a D detector (530/30 nm band pass filter). To assess specificity for CXCR4 receptor-mediated internalization, competition studies were performed incubating CRC SW1417 cells with the CXCR4 antagonist AMD3100 (Sigma Aldrich) in a 1:10 (protein:antagonist) molar ratio for 1 h before exposure to the nanoconjugate at […] for an additional hour.
The cells were washed in phosphate-buffered saline (Sigma-Aldrich). Live cells were recorded by TCS-SP5 confocal laser scanning microscopy (Leica Microsystems, Heidelberg, Germany) using a Plan Apo 63×/1.4 (oil HC×PL APO lambda blue) objective as described. To determine particle localization inside the cell, stacks of 10-20 sections forevery 0.5 μm of cell thickness were collected and three-dimensional models were generated using Imaris version 6.1.0 software (Bitplane, Zurich, Switzerland).

SW1417 CRC cells = assay: MTT cytotoxicity in SW1417 CRC cells; assay type: cell-based, human; details: compared to free oligo-FdU, 72 h, 1.0-1,000 nM
[2] = test system: CXCR4^+ HeLa human cervical carcinoma cell line; assay: Internalization in CXCR4+ HeLa cells (flow cytometry, AMD3100 competition); assay type: cell-based; details: 1 hour exposure, 1 μM
Procedure: To assess specificity for CXCR4 receptor mediated internalization, competition studies incubating CXCR4^+ HeLa cells with the CXCR4 antagonist AMD3100 (octahydrochloride hydrate, Sigma-Aldrich) were performed in a 1:10 (Protein:antagonist) molar ratio for 1 h before exposure to the nanoconjugate, as previously described for the T22-GFP-H6.
Nuclei were labeled with Hoechst 33342 (Life Technologies) and plasma membranes CellMask™ Deep Red (Life Technologies).

CXCR4^+ HeLa cells = assay: MTT cytotoxicity in CXCR4+ HeLa cells; assay type: cell-based, human; details: compared to free oligo-FdU
Procedure: Afterwards, a graphic displaying the linearized T22-GFP-H6-FdU dose-response trend line representation to compare cell viability for both compounds was constructed. Reduction of cell viability was also determined by optical microscope images of HeLa cells exposed to 1 μM […] for 48 h, as compared to T22-GFP-H6 or free FdU.

[3] = test system: CXCR4^+ cancer cells in SC SW1417 CRC tumor; assay: CXCR4+ cancer cell fraction in tumor tissue along time after single dose (anti-CXCR4 IHC); assay type: in vivo, mouse
Procedure: The SC SW1417 mouse model was used to determine the capacity of the nanoconjugate to induce DNA damage and apoptosis in tumor tissue, as well as the kinetics of CXCR4 expression in the membrane of tumor cells after treatment, regarding the fraction of CXCR4 expressing tumor cells and their intensity, since CXCR4^+ are the target cells for the nanoconjugate. […] The mice had been treated with equimolecular dosages of T22-GFP-H6, free oligo-FdU or Buffer, in which also were determined the levels of CXCR4 expression in tumor tissue at the different time points.

[4] = Biodistribution and toxicity in normal organs, bone marrow and circulating blood cells; assay type: in vivo, mouse
Procedure: At necropsy, bone marrow was extracted and registered ex vivo in the IVIS® 200-Spectrum equipment. Mouse blood was collected by punction in the maxillary plexus. The erythrocytes, leucocytes and platelets were isolated by the Ficoll density gradient method using the standard protocol. Further, pellets were obtained by centrifugation of the isolated cell extracts at 600 g, 10 min and then recorded to measure fluorescence using IVIS® 200-Spectrum.
In addition, two independent observers evaluated the possible histopathological alterations observed in H&E stained non-tumor tissue samples, searching for signs of toxicity.

With “T22-GFP-H6-FdU: nanoconjugate of T22-GFP-H6 protein nanoparticle covalently bound via maleimide linker to thiol-functionalized pentameric floxuridine oligonucleotide (oligo-FdU)” the “size determined by dynamic light scattering” value ([1]; Example 2, unit not given) was 14.6+0.14, the “size (DLS)” value ([1]; Example 3) was 14.66+0.14 nm and the “internalization measured by fluorescence emission using flow cytometry” value (CXCR4^+ SW1417 CRC cells) was “internalized”. For the same substance, the “cytotoxicity measured by cell viability or phase-contrast microscopy” value (SW1417 CRC cells) was “significantly higher cytotoxicity than free oligo-FdU”, the “internalization in HeLa cells” value [2] was “CXCR4-dependent nanoconjugate internalization” and the “cytotoxicity in HeLa cells” value (CXCR4^+ HeLa cells) was “higher cytotoxicity than free oligo-FdU”. The “CXCR4^+ CCF remaining in tumor tissue” value ([3]; 24 h after single dose) was “reduced”, the “CXCR4^+ CCF remaining in tumor tissue” value ([3]; 48 h after single dose) was “undetectable” and the “fluorescence emission in erythrocytes, leucocytes or platelets” value ([4]; 5 h after doses in the 10-100 μg range) was “Lack of fluorescence emission”. The “fluorescence emission in spleen or bone marrow” value ([4]; 5 h after single injections, 10-100 μg range) was “Lack of fluorescence emission”, the “level of DSBs in liver (anti-gH2AX IHC)” value ([4]; 5 h after treatment) was “undetectable” and the “apoptosis or histological alteration in bone marrow or liver” value ([4]; 24 h post-administration) was “not detected”. For the same substance, the mouse body weight ([4]; regression and prevention of metastases experiments) was “lack of mouse body weight loss”.

From patent US12202866B2, “Therapeutic nanoconjugates and uses thereof” (UNIVERSITAT AUTÒNOMA DE BARCELONA (UAB), priority 2017, dated 2025)
